Results from the nanobody polyreactivity screen of Harvey et al. (2022).

Assay: yeast display, Sf9 membrane polyspecificity reagent, FACS + sequencing; frameworks hold sequencing errors
Outline: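 Synthetic nanobody libraries on Saccharomyces cerevisiae BJ5465 were galactose-induced for 36–48 hours, stained 1 hour at 4 °C with 10% biotinylated, detergent-solubilized Sf9 membrane reagent and enriched on streptavidin microbeads. FACS then separated cells into low and high (top ~1%) gates by anti-HA (expression) and streptavidin (reagent binding) fluorescence. Genes were colony-PCR amplified, MiSeq 2 × 250 sequenced and CDR-length filtered. A clone's polyreactivity label is that of its gate of origin.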

| Sequence | polyreactivity (PSR sort gate) |
| --- | --- |
| QVQLVESGGGLVQVGGSLRLSCAASGFTFYDYAMGWYRQAPGKERELVAAISRGGSTYYADSVKGRFTISRDNAKNTVYLQINSLIPEDTAVYYCNARPTRIYHGMGYWGQGTQVTVSS | low polyreactivity |
| QVQLVDSGGGLVQAGGSLRLSCAASGRTIVYYAMGWYRQAPGKERELVAAIRSGGSTNYADSVKGRFTISRDNAKNTVYLQMNSLKPEDTAVYYCNAVHYYYYKGDYWGQGTQVTVSS | high polyreactivity |
| QVQLVESGGGLVQAGGSLRLSCAASGYIFKYNAMGWYRQAPGKERELVAAISGRGGSTYYADSVKGRFTISRDNAKNTVYLQMNSLKPEDTAVYYCNADYQARRYNYWGQGTQVTVSS | high polyreactivity |
| QVQLVESGGGLVQAGGSLRLSCAASGSTFYTNAMGWYRPAPGKEREFVAAISWSGSSTYADSVKGRFTISRDNAKNTVYLQMNSLKPEDTAVYYCAADWFKLRTDYYWGQGTQVTVSS | low polyreactivity |
| QVQLVESGGGLVQAGGSLRLSCAASGSIFGIYAMGWYRQAPGKERELVAAIRVSDGRTYYADSVKGRFTISRDNAKNTVYLQMNSLKPEDTAVYYCAAESQSSYGPYDYWGQGTQVTVSS | low polyreactivity |
| QVQLVESGGGLVQAGGRLRLSCAASGRTLYRYAMGWYRQAPGKERELVATIRRSGGSTNYADSVKGRFTISRDNAKNTVYLQMNSLKPEDTAVYYCAAVSFKPEYYYWGQGTQVTVSS | high polyreactivity |
| QVQLVESGGGLVQAGGSLRLSCAASGSTFRVNAMGWYRQAPGKEREFVAGISFGGGSTYYADSVKGRFTISRDNAKNTVYLQMNSLKPEDTAVYYCNARGKGSGAVRYNYWGQGTQVTVSS | high polyreactivity |
| QVQLVESGGGLVQAGGSLRLSCAASGSTFDYYAMGWYRQTPGNDRELVAALSWSGGSTYYADSVKGRFTISRDNAKNTVYLQMNSLKPEDTAVYYCATGTYCPRYNYFEGYYWGQGTQVTVSS | high polyreactivity |
| QVQLVESGGGLVQAGGSLRLSCAASGRTFWWYGMGWYRQAPGKDRELVAAITNGGSTNYADSVKGRFTISRDIAKNTVYLQMNSLKPEDTAVYYCAARTRSWYGGFYKYYYWGQGTQVTVSS | high polyreactivity |
| QVQLVESGGGLVQAGGRLRLSCAASGRTIVRYVIGWYRQAPGKERELVARISFSSGSTYYADSVKGRFTISRDNAKNTVYVQMNSLIPEDTAVYYCAASPDVSFRRFSRVVSGDYWGQGTKVTVSS | high polyreactivity |
| QVQLVESGGGLVHAGGSLRLSCAASGRIFATNVMGWYRQAPGKETEMVAAISRSGASTYYADSVKGRFTISRDNAKTSVYLQMNSLKPEDTAGYYCADRRFYYGDRYDYWGQGTQVTVSS | high polyreactivity |
| QVQLVESGGGLVQAGGSLRLSCAASGRTFRFYAMGWYRQAPGKEREFVAAISRCVGSTYYADSVKGRFTISRDNAKNNVYLQMNSLKPEDTAVYYCNADYRSRYVEYDYWGQGTQVTVSS | high polyreactivity |
| QVQLVESGGGLVQAGGSLRLSCAASGSIFFKYTMGWYRQAPGKEREFVAAISYSGGRTYYADSVKGRFTISRDNAKNTVYLQMNSLKPEDTSVYYCATRDEITHGDRMDYWGQGTQVTVSS | low polyreactivity |
| QVQLVESGGGLVQAGGSLRLSCAASGFIFRDNAMGWYRQAPGKERELVAAISSRGGSTYYADSVKGRFTISRDNAKNTVYLQMNSLKPEDTAVYYCAKRPYKSRVQLDSWGQGTQVTVSS | high polyreactivity |
| QVQLQESGDGLVQAVGSLRLSCAASGYISGYYYMGWYRQAPGKERELVAGIDAFGSSTNYADCVKGRFTISRDNAKNTVYLQMNSPNPEDTAVYYCAAEFDDWDYHSYWGQGTQVSVSS | low polyreactivity |
| QVQIVESGGGLVQAGGSLRLSCAASGRTFAYYSMGWYRPAPGKEREFVAAISRSGGSTYYADSVKGRFTISRDNAKNTVYLQMNSLKPEDTAVYYCNARYIWKQYRYDYWGQGTQVTVSS | high polyreactivity |
| QVQLVESGGGLVQAGGSLRLSCAASGRIFSWYTMGWYRQAPGKERELVAIISRSGGSTYYADSVKGRFTISRDNAKNTVYLQMNSLKPEDTAVYYCNARWSFSYTVWVDSYWGLDDYWGQGTQVTVSS | high polyreactivity |
| QVQLVESGGGLVQAGGSLRLSCAASGFIFDAYAMGWYRQAPGKERELVAAITRGNTYYADSVKGRFTISRDNAKNTVYLQMNSLKPEDTAVYYCAARYWQSYRSQVTHSSTLDYWGQGTQVTVSS | low polyreactivity |
| QVQLVESGGGLVQAGGSLRLSCAASGSIFVDYAMGWYRQAPGKERELVAAITWRGDTTYYADSVKGRFTISRDNAKNTFYLQMNSLKPEDTAVYYCAAADPVGGEYWGQGTQVTVSS | low polyreactivity |
| QVQLQESGGGLEQAGGCLRLSCAASGSIFTYAVMGWYRQAHGKEHELVATIDTGSSTYYADSVKGRISISRDNAKNTLYLQMNSLKPEDTEVYYCAVNTYCRVRYRYWVQGTQVTVSS | high polyreactivity |
| QVQLEESGGGLVQAGGSLRLSCAASGITFVTYAMGWYRQAPGKERELVAAISRSGGRTYYADSVKGRFTISRDNAKNTVYLQMNSLKPDDTAVYYCAAERKNKYDYWVQGTQVTVSS | high polyreactivity |
| QVQLVESGGGLVQAGGSLRLSCAASGFTFTPNAMGSYRQAPGKERELVAAITSGGNTYADSVKGRFTISRDNAKNTVYLQMNSLKPEDTAVYYCAKGEGYWYIARYLPVGYGYWGQGTQVTVSS | low polyreactivity |
